Test: soluble on expression in E. coli; label from the status in PepcDB or PDB records

Sequence	soluble on expression in E. coli
MGSDKIHHHHHHMTLTANNKKRAVLRVRPGQFVVTPAIEQVAIRALRYLTSGFAIHLRGPAGTGKTTLAMHLANCLDRPIMLIFGDDEFKSSDLIGSESGYTHKKLLDNYIHSVLKVEDEFKQNWVDSRLTLACREGFTLVYDEFNRSRPEVNNVLLSALEEKILTLPPSSNQPEYLHVNPQFRAIFTSNPEEYCGVHSTQDALMDRLVTINMPEPDELTQTEILAQKTALNRADALLVVQLVKAFRSRTGGEKTSGLRSCLMIAKVCAEHNILVAPESSDFREICADVLFNRTNWSASEATTIFLELLNHLNLEEIEEFKNSITSEDTDAIADEDHNAINESGFPTIIDSQFGTLDSEVLEQPGVEDSIPFEREIYLYLQQYKSAALALLQQEFELSRTVATNALNSLEQKGLVSKNNHVYTIEEPNQP	not soluble
MNGKEIGEKNSKKYSFEVDSRSVYKCVQCGTCRSVCPVFDVVGWESANTRGRMLIIKSLLEGRPPSEDVLPSLASCTTCGICAAKCPAGANPPEVVEAARAQLVKCGVTTEAQLEHHHHHH	not soluble
MHDISSLTTRTKTLPPLRVGVGGPVGSGKTTLLEMVCKAMYPQFDLIAITNDIYTKEDQRLLTLSGALPPERILGVETGGCPHTAIREDASINLIAIDQMLEQFPDADIVFVESGGDNLAATFSPELSDLTLYIIDVASGEKIPRKGGPGITKSDLFIINKTDLAPYVGADLAVMEADTRRMRGDKPFVMCNLKTGDGLDQVIAFLKTEGLFRGLEHHHHHH	soluble
AELLLGVNIDHIATLRNARGTAYPDPVQAAFIAEQAGADGITVHLREDRRHITDRDVRILRQTLDTRMNLEMAVTEEMLAIAVETKPHFCCLVPEKRQEVTTEGGLDVAGQRDKMRDACKRLADAGIQVSLFIDADEEQIKAAAEVGAPFIEIHTGCYADAKTDAEQAQELARIAKAATFAASLGLKVNAGHGLTYHNVKAIAAIPEMHELNIGHAIIGRAVMTGLKDAVAEMKRLMLEARG	soluble
MPLNKLIQDGDNQDLTDERFKATFDTDALAAVFHGGEDALKRIRELRDEVTKRWHLFDALPGAHRTRAERMEDVSRKLKNLMESVGEFADFTNNLDMLVIIRDVMGIEGFPLALHNLMFVPTIQNQADDEQTEWWLMDALQGKIIGTYAQTELGHGTNLGAIETTATYDKLTEEFIIHTPTTTATKWWPGGLGTSCTHVVLVANLIIDTKNYGLHPFFVPIRDRNSYSVMSGVRVGDIGTKMGVNCVDNGFLAFDNYRIPRRNMLMKHSKVSKEGLYTAPSHPKVGYTTMLYMRSEMIYHQAYYLAMAMAISIRYSAVRRQGEIKPGTQEVQILDYQTQQYRIFPGLARCFAFNTAAATVRQMTENCIKQLSHGNSDVLADLHALSCGLKAVVTHQASQSIDQARQACGGHGYSDASYLPTLYTCSVGACTYEGENMVMLLQLSKYLMKAAAKAEKGEEMAPLVAYLVKPDITETNDKFAKMLSHFEHIARHRVMHAYRQMIEEEKQGIERDYAFANHSVDWTKAARAHTKLFIARGFVKSVQEVSDEAVHDVLTTLAELYLSYELIEMSADLTANGYLSESDVQQIRHQIYDSMRKTRRNAVSIVDSFDICDRELRSVLGRRDGHVYENLYKWAQMSPLNERNLPHVEKYLKPMTSKL	not soluble
MADIAILVAEEYERRMKHTTVGSRSSPVEFDWWKIIPAKMTIAFDKMKIESLKKNFEAKSEFALAISHGFFSA	not soluble
MGSDKIHHHHHHMTISYEKFHLKEVINASGKMTILGVSKVSEAVLAAQRFGGEHFFEMSELSVQTGAFLANLLKVEDAQIVSSASAGIAQSVAALIGKGSLYHAYHPYTEKIEQREIVLPKGHNVDYGTPVEVMVAQGGGQVVEAGYANMCSPEHVEMMISEKTAAILYIKSHHTVQKSMLTVAEAAKVAQRHKVPLIVDAAAEEDLFKYTEAGADLVIYSGAKAIEGPSAGLVVGKKEYIDWVRLQGKGIGRAMKIGKDNILGFTQAVEEYLAHGSESGASMQERLKPFVEAINNLSDLTAKIVQDGAGRDIYRASVKVDGRKTAKEVIQALKAESPAIYTREYQANNGIIEFDIRSVNQEEMNKIVQRLQEIMDKKEK	not soluble
MKLQTTYPSNNYPIYVEHGAIKYIGTYLNQFDQSFLLIDEYVNQYFANKFDDILSYENVHKVIIPAGEKTKTFEQYQETLEYILSHHVTRNTAIIAVGGGATGDFAGFVAATLLRGVHFIQVPTTILAHDSSVGGKVGINSKQGKNLIGAFYRPTAVIYDLDFLKTLPFKQILSGYAEVYKHALLNGESATQDIEQHFKDREILQSLNGMDKYIAKGIETKLDIVVADEKEQGVRKFLNLGHTFGHAVEYYHKIPHGHAVMVGIIYQFIVANALFDSKHDISHYIQYLIQLGYPLDMITDLDFETLYQYMLSDKKNDKQGVQMVLMRQFGDIVVQHVDQLTLQHACEQLKTYFK	soluble
MSLAVFAARKWKYNEDKMMTIVRIDAEARWSDVVIHNNTLYYTGVPENLDADAFEQTANTLAQIDAVLEKQGSNKSSILDATIFLADKNDFAAMNKAWDAWVVAGHAPVRCTVQAGLMNPKYKVEIKIVAAVEGHHHHHH	soluble
MESFIDRITEETDENFRICRENIPNFETTISPLLNTMKNIKLLLDDAAFDQQKLENNCEETCMNCTKSQLNDFLGIKVEASTIVDVKSQLVPQSKESSALVETNEPNEQGLSSKPKENDIRIVPQITDEEFKTIPKYQLGRLTLEMMNEIVSKMDDFLMKKSKILGKTNKQLTRSDREVLDNWRELEMKARKRLPTTLFFIETDIRPMLQDRLRPSFAKAIPCLRHIRRIREERCGPLTFYYP	not soluble
MSDDPNTTQERAMEGPSENQAARQLEGNQEEAQRQPKEEQADREEAKGEEEAPQVAAALPIPDSPFLTELARLLRGSLRPYLNTEPDEVIEAARQDHQLDQEVANENLLQYICRTLVESNDMGKLAEIRELFARTPEDPAFNTPAGIDDSAMNQFYELIRDCRVVPEDDQTFVPRQALATRIHLIIDSFQARRESEFLRQWCQQNIVCLLYGNPVPEMKDFAYRILIEMLTSSSTWTAELESFANELSRKRGTFINDYWATIRDQNEAGDLDPKRTLFADFRDQHSVFGNVQFDIFRERLAQLEKLWHSQMRMFDVPDKVLCVTGIVTDTMTEMLMGVKDGKPNITPFLKKARIFYRLSDGAETSEAPAEASARASEAPEAPALPPKRSRGIKRKLSEYAEELFESKKPKSDELPTAEQWMYFLQHCLQGPEQDEQRGGNQ	not soluble
MGSDKIHHHHHHMLFYLPVTGQNTAVYPDQFGAYFNNMHLVTPSYFPKDVKVNLSLSYKSRTGALNKISTFNVAFTRVFNHTKPTNHLIRIYFYNEKDGPYIHRPRAYINYGYKIALSKQVNIAAGAAFGFAQTAFTAPSSTANGNSISPDASIGLSLQVKNFEAGFSVCQLLNSEVNPVVAPIIYRRYYNTYLSYHADLSPFIKLKSGMLWRALPTYDDDLNIYSMLEYKETISFGGCYRYNKNFSFVVSTNIHIGKESILLSFVYNTPFFTKLPAWTDSVELNGGYNFY	not soluble
MGSDKIHHHHHHMLNDANLQAADMPDTEFTLTRNGFGRLVLTLGDGTAHEGVVPVRAFPIGAPDDGIGMMSTDGHELAWIPRLDRLPAPQRAMVEEELAAREFMPEIQRIVGVSTFATPSEWTVQTDRGQTTLVLRGEEDIRRLAGTTLLISDSHGIHYLIRDLMALDRASRKILDRFL	not soluble
MKLIAVLNLLNQLSNKNSLEEYLNGVIDFLSGWTGCENIGIRVLREAGLAPYVVHRGFDKDFIASESCISVEGDECVCLRVLKQQFKSEDQDHISAAGTYYAPNFYRYVEELREDQLLNFRGLCAHKQFKSLAVIPLLHQGKVVGAIHIADIKDGVFSEEDIHFIETIRPLVAEAIYRHNLEKALEHHHHHH	not soluble
MSLSVPRSGLSVQMAQPARPLRADAARNRARILGVAYEAFATEGLSVPIDEIARRAGVGAGTVYRHFPTKEALCAAVIGDRMPHLVDDGYVLLKSAGPGEALFTYLRSLVLHWGATDRGLVDALAGAGGIDILGVAPDAEDAFLTILSDLLYAAQYAGTARTDVGVREVKSILVGCQAMEAYNSALAERVTDVVVDGLRAAREGHHHHHH	soluble
QFLFSMSTGPFICTVKDNQVFVANLPWTMLEGDDIQVGKEFAARVEDCTNVKHDMAPTCTKPPPFCGPQDMKMFNFVGCSVLGNKLFIDQKYVRDLTAKDHAEVQTFREKIAAFEEQQENQPPSSGMPHGAVPAGGLSPPPPPSFCTVQ	soluble

Source: the DeepSol protein solubility set
